# Test results: patent US20160193316A1 (priority 1994, published 2016)
# Read-outs that look alike come from different tables or passages of the source. No end group written: not given here.
# Columns and labels:
# [1] = target: T1, DRB4*0101 (DRw53) (Homo sapiens, UniProt P01903+P13762, G164S); assay: HLA class II peptide binding assay (pH 5.0); details: for DRw53 binding data: Table XIXb
# T1 construct: expressed in transfected cells; host or cells: L257.6 (fibroblasts)
# [2] = target: T2, DRB1*0405 (DR4w15) (Homo sapiens, UniProt P01903+P01911, A100R/A169T/D86S/F76Y/I96L/K127E/L162R/M171V/N62H/P40V/Q125Y/R42H/S133A/S149N/S66Y/V115G/V209L/W38E); assay: HLA class II peptide binding assay; details: for DR4w15 binding information: unit not given; for DR4w15 binding data: Table XIXb
# T2 construct: endogenous in cells; host or cells: KT3
# [3] = target: T3, DRB1*0802 (DR8w2) (Homo sapiens, UniProt P01903+P01911, A100R/A103L/A169T/F76Y/H45Y/I96F/K41T/L162R/M171V/P40S/Q125H/Q178H/Q39Y/Q99D/R218S/R42G/S66Y/V115G/W38E); assay: biochemical; type: binding
# T3 construct: endogenous in cells; host or cells: OLL
# [4] = target: T4, DRB1*1501 (DR2w2β1) (Homo sapiens, UniProt P01903+P01911); assay: HLA class II peptide binding assay; details: for DR2w2β1 binding information: unit not given; for DR2w2β1 binding data: Table XIXb
# T4 construct: expressed in transfected cells; host or cells: L466.1 (fibroblasts)
# [5] = target: T5, DRB1*1101 (DR5w11) (Homo sapiens, UniProt P01903+P01911, A100R/A169T/A87E/I96F/K41T/L162R/M171V/P40S/Q125H/Q178H/Q39Y/Q99D/R42S/S66Y/T262R/V115G/W38E); assay: biochemical; type: binding
# T5 construct: endogenous in cells; host or cells: Sweig
# T5 sequence (P01903 26-254, other chains not shown): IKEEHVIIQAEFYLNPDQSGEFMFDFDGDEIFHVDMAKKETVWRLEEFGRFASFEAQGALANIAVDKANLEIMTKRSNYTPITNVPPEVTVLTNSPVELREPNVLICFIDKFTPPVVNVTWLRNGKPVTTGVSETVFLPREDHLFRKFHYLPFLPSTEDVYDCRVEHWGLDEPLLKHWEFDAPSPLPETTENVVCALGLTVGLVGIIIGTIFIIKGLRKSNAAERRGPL
# [6] = target: T6, DRB1*0101 (DR1) (Homo sapiens, UniProt P01903+P01911, A100R/D57E/F55L/F60I/F76Y/I96L/L162R/M171V/P40L/Q125E/R42F/V115G/Y59C); assay: HLA class II peptide binding assay; details: for DR1 binding information: unit not given; for DR1 binding data: Table XIXb, Malaria Super Motif Peptides With Binding Data
# T6 construct: endogenous in cells; host or cells: LG2
# T6 sequence (P01903 26-254 partner, other chains not shown): as the sequence (P01903 26-254, other chains not shown) above
# [7] = target: T7, DRB1*0401 (DR4w4) (Homo sapiens, UniProt P01903+P01911, A100K/A169T/F76Y/I96L/K127E/L162R/M171V/N62H/P40V/Q125Y/R42H/S133A/S149N/S66Y/V115G/V209L/W38E); assay: HLA class II peptide binding assay; details: for DR4w4 binding information: unit not given; for DR4w4 binding data: Table XIXb
# T7 construct: endogenous in cells; host or cells: Preiss
# T7 sequence (P01903 26-254 partner, other chains not shown): as the sequence (P01903 26-254, other chains not shown) above
# [8] = target: T8, DRB5*0101 (DR2w2β2) (Homo sapiens, UniProt P01903+Q30154); type: binding
# T8 construct: expressed in transfected cells; host or cells: L416.3 (fibroblasts) or GM3107
# [9] = target: T9, DRB1*0701 (DR7) (Homo sapiens, UniProt P01903+P01911, A100R/A102G/A103Q/D57E/D86V/E43K/F76Y/K127E/L162R/M171V/P40G/Q125H/Q99D/R33Q/R42Y/R54Q/S133A/S66F/T210M/V115G/Y107V/Y59L/Y89S); assay: biochemical; type: binding
# T9 construct: endogenous in cells; host or cells: Pitout
# [10] = target: T10, DRB1*0301 (DR3) (Homo sapiens, UniProt P01903+P01911, A100K/A102G/A103R/A169T/F55Y/I96L/K41T/L162R/M171V/P40S/Q125H/Q178H/Q39Y/R42S/S66N/T106N/T262R/W38E/Y61H); assay: HLA class II peptide binding assay (pH 4.5); details: for DR3 binding information: unit not given; for DR3 binding data: Table XIXb; for Alleles bound (DR3): binding to DR3, Table XXXIV
# T10 construct: endogenous in cells; host or cells: MAT
# [11] = target: T11, DRB1*1302 (DR6w19) (Homo sapiens, UniProt P01903+P01911, A100E/A169T/K41T/L162R/M171V/P40S/Q125H/Q178H/Q39Y/Q99D/R42S/S66N/T262R/V115G/W38E/Y61H); assay: HLA class II peptide binding assay; details: for DR6w19 binding information: unit not given; for DR6w19 binding data: Table XIXb
# T11 construct: endogenous in cells; host or cells: H0301
# T11 sequence (P01903 26-254, other chains not shown): as above
# [12] = target: T12, DRB1*1201 (DR5w12) (Homo sapiens, UniProt P01903+P01911, A100R/A169T/D57E/D86V/F55L/H45Y/K41T/L162R/M171V/P40S/Q125H/Q178H/Q39Y/Q99D/R42G/S66L/T262R/V114A/V67L/W38E/Y59H/Y61H/Y89S); assay: HLA class II peptide binding assay; details: Table XIXb; DR5w12
# T12 construct: endogenous in cells; host or cells: Herluf
# [13] = target: T13, DRB1*0901 (DR9) (Homo sapiens, UniProt P01903+P01911, A100R/A103E/D57H/D86V/F55Y/F60I/F76Y/I96F/K127E/L162R/M171V/P40D/Q125H/Q99R/R33Q/R42F/S133A/S66N/T210M/V115G/W38K/Y107V/Y59G/Y89S); assay: biochemical; type: binding
# T13 construct: endogenous in cells; host or cells: HID
# [14] = target: HLA-A*1101 (Homo sapiens, UniProt P04439, A114D/D185E/E176A/F33Y/L180Q/S129P/T187R); assay: HLA class I peptide binding assay; details: Table XVII, malaria A11 motif peptides; binding value unit not given
# [15] = target: T14, HLA-A*0301 (Homo sapiens, UniProt P04439); assay: HLA class I peptide binding assay; details: Malaria A3 motif peptides, Table XVI; binding value to HLA-A*0301, unit not given
# T14 construct: endogenous in cells; host or cells: GM3107
# [16] = DR3a motif peptides, exemplary 15-mer containing the core sequence
Compound,DR5w12 binding data [12],DR4w15 binding data [2],DR9 binding data [13],DR8w2 binding data [3],DR2w2β1 binding data [4],DR5w11 binding data [5],DR6w19 binding data [11],DR1 binding data ([6]; DR1),DR4w4 binding data [7],DR2w2β2 binding data [8],DR7 binding data [9],DR3 binding data [10],also measured
VCNDEVDLY,,,,,,,,,,,,,"DRw53 binding information ([1]; DR3a motif peptides, unit not given, exemplary 15-mer containing the core sequence): -0.0010; DR4w15 binding information [2, 16]: -0.0004; DR8w2 binding information [3]: -0.0003; DR2w2β1 binding information [4, 16]: -0.0006; DR5w11 binding information [5]: 0.0001; DR1 binding information [6, 16]: 0.0003; DR4w4 binding information [7, 16]: -0.0014; DR2w2β2 binding information [8]: 0.1300; DR7 binding information [9]: -0.0003; DR3 binding information [10, 16]: -0.0006"
IQDSLKESR,,,,,,,,,,,,,DR8w2 binding information [3]: 0.0012; DR2w2β1 binding information ([4]; Malaria DR3b motif peptides): 0.0040; DR5w11 binding information [5]: -0.0006; DR6w19 binding information ([11]; Malaria DR3b motif peptides): -0.0002; DR1 binding information ([6]; Malaria DR3b motif peptides): -0.0001; DR2w2β2 binding information [8]: -0.0018; DR7 binding information [9]: -0.0014; DR3 binding information ([10]; Malaria DR3b motif peptides): 0.8400
VVPGAATPY,0.0061,-0.0014,0.0200,0.0026,0.0008,0.0036,0.0017,0.1100,0.0057,0.0053,0.0160,-0.0008,A*1101 binding information [14]: 0.0002
PDSIQDSLKESRKLN [Peptide 35.0171],,,,,,,,,,,,,"IC50 [13]: > 20 µM; IC50 [3]: > 20 µM; IC50 [4]: 2.29 µM; IC50 [5]: > 20 µM; IC50 [11]: > 20 µM; IC50 ([6]; read-out: Binding capacity (IC50 nM) DR1, DR1): > 20000 nM; IC50 [9]: > 20 µM; Alleles bound (DR3) [10]: DR3"
VNHAVPLAM,,0.0400,4.000,0.200,,,,,3.900,,,0.2300,
IKNSEKDEI,,,,,,,,,,,,,DR4w15 binding information ([2]; Malaria DR3b motif peptides): -0.0010; DR8w2 binding information [3]: -0.0007; DR2w2β1 binding information ([4]; Malaria DR3b motif peptides): -0.0021; DR5w11 binding information [5]: -0.0003; DR1 binding information ([6]; Malaria DR3b motif peptides): 0.0002; DR4w4 binding information ([7]; Malaria DR3b motif peptides): 0.0030; DR2w2β2 binding information [8]: -0.0160; DR7 binding information [9]: -0.0011; DR3 binding information ([10]; Malaria DR3b motif peptides): -0.0017
LALFFIIFN,0.0002,0.0100,-0.0018,-0.0007,0.0180,-0.0005,-0.0002,0.0006,0.0047,-0.0021,0.0056,-0.0043,
LATSVLAGL,0.0073,0.1200,2.6000,0.1300,0.0018,0.0210,0.0072,1.2000,3.2000,0.0700,0.6500,0.0010,
LYADSAWEN,,,,,,,,,,,,,"DR8w2 binding information [3]: -0.0009; DR2w2β1 binding information [4, 16]: 0.0005; DR5w11 binding information [5]: -0.0006; DR6w19 binding information [11, 16]: 0.0003; DR1 binding information [6, 16]: 0.0002; DR2w2β2 binding information [8]: -0.0010; DR7 binding information [9]: -0.0014; DR3 binding information [10, 16]: 0.3500"
LGNVSTVLL,0.0001,0.0360,0.5300,0.0012,0.0240,0.0005,,0.0430,0.0065,0.0013,0.4300,0.0059,
IAGGLALLA,0.0007,0.0014,,0.0004,,-0.0002,,0.0160,0.0014,0.0013,-0.0003,,DRw53 binding data [1]: -0.0005; A*0301 (binding information) [15]: 0.0002
VHDLISDMI,0.0001,0.0075,0.0430,0.0096,,0.0037,0.0004,0.0130,0.0310,0.0061,0.0100,0.0100,DRw53 binding data [1]: 0.0940
CC(C)C[C@H](NC(=O)[C@H](CC(N)=O)NC(=O)[C@H](CS)NC(=O)[C@@H](N)CCCCN)C(=O)N[C@@H](Cc1ccc(O)cc1)C(=O)N[C@@H](C)C(=O)N[C@@H](CC(=O)O)C(=O)N[C@@H](CO)C(=O)N[C@@H](C)C(=O)N[C@@H](Cc1c[nH]c2ccccc12)C(=O)N[C@@H](CCC(=O)O)C(=O)N[C@@H](CC(N)=O)C(=O)N[C@H](C(=O)N[C@@H](CCCCN)C(=O)N[C@@H](CC(N)=O)C(=O)O)C(C)C [Peptide 35.0172],,,,,,,,,,,,,IC50 [13]: > 20 µM; IC50 [3]: > 20 µM; IC50 [4]: 18.2 µM; IC50 [5]: > 20 µM; IC50 [11]: 11.1 µM; IC50 [6]: 23400 nM; IC50 [9]: > 20 µM; IC50 [10]: 0.857 µM; Alleles bound (DR3) [10]: DR3
LAILSVSSF,0.1200,0.0270,0.1100,0.0013,0.5000,0.0370,0.0930,0.1000,0.0078,0.0130,0.0500,-0.0043,
